# Reference: patent publication US20020157120A1 (University of California, published 2002)
# B1: Discosoma red fluorescent protein, dsRed (other)
# chain: MRSSKNVIKEFMRFKVRMEGTVNGHEFEIEGEGEGRPYEGHNTVKLKVTKGGPLPFAWDILSPQFQYGSKVYVKHPADIPDYKKLSFPEGFKWERVMNFEDGGVVTVTQDSSLQDGCFIYKVKFIGVNFPSDGPVMQKKTMGWEASTERLYPRDGVLKGEIHKALKLKDGGHYLVEFKSIYMAKKPVQLPGYYYVDSKLDITSHNEDYTIVEQYERTEGRHHLFL
# notes: Wild-type dsRed (CLONTECH DNA) cloned into pRSETB, made in JM109(DE3) E. coli and purified on NiNTA-agarose; The entries describe self-association of dsRed subunits; also called red fluorescent protein (dsRed) from coral; not shown: N-terminal tag from vector pRSETB (protein purified by nickel chelate chromatography)
# Target: the molecule itself
# Assay: Self-association (oligomer dissociation), inferred from FCS translational diffusion at about 1 nM dsRed
# Text: Fluorescence was collected through the same objective, a dichroic mirror, and 525+/−50 nm (citrine) or 580+/−50 nm (dsRed) filters and focused by a 150-mm achromat into an optical fiber ([…]). The fluorescence signal was detected by a fiber-coupled avalanche photodiode (APD; SPCM-AQ-141-FC; EG & G, Salem, Mass.). The APD signal was processed by using a correlator card (ALV5000; ALV Laser, Germany), and correlation curves were fitted by using the following function (Schwille et al., supra, 2000):
# Within experimental uncertainty, our estimated rotational time (i.e., protein volume) agrees with the tetramer hypothesis of dsRed configuration.
protein,measurement,value
B1,Kd,≤ 1 nM
